Results published in the supplement of paper PMC7877785.
± gives the uncertainty stated by the source.

Test: self-splicing fitness, log relative to wild type (ln ratio); higher = more splicing; Tetrahymena group I intron in knt gene, E. coli kanamycin selection, DiMSum; sequences stand for … in CUCUCU…GGAGGGAAAAGUUAUCAGGCAUGCACCUGGUAGCUAGUCUUUAAACCAAUAGAUUGCAUCGGUUUAAAAGGCAAGACCGUCAAAUUGCGGGAAAGGGGUCAACAGCCGUUCAGUACCAAGUCUCAGGGGAAACUUUGAGAUGGCCUUGCAAAGGGUAUGGUAAUAAGCUGACGGACAUGGUCCUAACCACGCAGCCAAGUCCUAAGUCAACAGAUCUUCUGUUGAUAUGGAUGCAGUUCACAGACUAAAUGUCGGUCGGGGAAGAUGUAUUCUUCUCAUAAGAUAUAGUCGGACCUCUCCUUAAUGGGAGCUAGCGGAUGAAGUGAUGCAACACUGGAGCCGCUGGGAACUAAUUUGUAUGCGAAAGUAUAUUGAUUAGUUUUGGAGUACUCGUGGUCG
Method in brief: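 Pooled colonies went to amplicon sequencing on an Illumina HiSeq 2500 after six replicate transformations. The plates were LB agar with 100 μg/mL carbenicillin, 50 μM IPTG and 0.2% rhamnose, with or without 25 μg/mL kanamycin, incubated overnight at 37°C or 30°C. The E. coli BL21(DE3) library had all eight P1ex-region intron nucleotides randomised, the intron placed in the knt kanamycin-resistance gene on pET-22b(+). DiMSum fitness is the error-weighted combination of replicate fold changes, kanamycin against none, normalised to wild type.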

| Sequence | self-splicing fitness (ln) (30 °C) | self-splicing fitness (ln) (37 °C) |
| --- | --- | --- |
| CGGCAGCAAUAUUACGCGAG | -2.86 ± 0.14 | -2.37 ± 0.14 |
| CGGCAGCAAUAUUACGCGGA |  | -2.7 ± 0.3 |
| CGGCAGCAAUAUUACGCGUU | -4.11 ± 0.2 | -2.75 ± 0.18 |
| CGGCAGCAAUAUUACGCUAA | -1.59 ± 0.1 | -2.03 ± 0.15 |
| CGGCAGCAAUAUUACGGAGG | -1.2 ± 0.086 | -0.0971 ± 0.11 |
| CGGCAGCAAUAUUACGGAGU | -3.46 ± 0.27 | -2.33 ± 0.2 |
| CGGCAGCAAUAUUACGGAUA | -3.38 ± 0.22 | -2.39 ± 0.18 |
| CGGCAGCAAUAUUACGGCUA | -0.121 ± 0.07 | 0.407 ± 0.096 |
| CGGCAGCAAUAUUACGGCUG | -3.69 ± 0.47 | -2.23 ± 0.27 |
| CGGCAGCAAUAUUACGGGCA | -2.31 ± 0.26 | -0.644 ± 0.13 |
| CGGCAGCAAUAUUACGUGAG | -0.694 ± 0.041 | -0.055 ± 0.069 |
| CGGCAGCAAUAUUACGUGGA | -2.73 ± 0.26 | -1.72 ± 0.27 |
| CGGCAGCAAUAUUACGUUUG | -1.58 ± 0.069 | -0.243 ± 0.079 |
| CGGGAGCAAUAUUACGAGAG | -3.34 ± 0.26 | -3.18 ± 0.32 |
| CGGGAGCAAUAUUACGAGUC |  | -1.07 ± 0.26 |
| CGGGAGCAAUAUUACGCGGG | -4.1 ± 0.37 | -2.83 ± 0.3 |
| CGGGAGCAAUAUUACGGAAA | -3.53 ± 0.29 |  |
| CGGGAGCAAUAUUACGGGAU | -3.37 ± 0.34 |  |
| CGGGAGCAAUAUUACGGUCC |  | -2.32 ± 0.24 |
| CGGGAGCAAUAUUACGGUUC | -3.39 ± 0.25 | -1.95 ± 0.35 |
| CGGGAGCAAUAUUACGUAAU |  | -1.95 ± 0.28 |

| Sequence | self-splicing fitness (ln) (30 °C) | self-splicing fitness (ln) (37 °C) |
| --- | --- | --- |
| CGGGAGCAAUAUUACGUACA | -3.72 ± 0.35 |  |
| CGGGAGCAAUAUUACGUAUU | -4.48 ± 0.41 | -2.31 ± 0.37 |
| CGGGAGCAAUAUUACGUGAG | -1.03 ± 0.11 | -0.865 ± 0.11 |
| CGGGAGCAAUAUUACGUGCU | -3.7 ± 0.21 | -2.87 ± 0.22 |
| CGGGAGCAAUAUUACGUGUA | -4.05 ± 0.39 | -1.47 ± 0.22 |
| CGGGAGCAAUAUUACGUUUA | -3.47 ± 0.31 | -1.8 ± 0.28 |
| CGGUAGCAAUAUUACGAAAA | -2.62 ± 0.35 | -2.77 ± 0.39 |
| CGGUAGCAAUAUUACGAAGG | -0.178 ± 0.15 | 0.565 ± 0.16 |
| CGGUAGCAAUAUUACGAGAA | -2.77 ± 0.32 | -1.85 ± 0.33 |
| CGGUAGCAAUAUUACGAGGG | -3.72 ± 0.36 | -2.96 ± 0.25 |
| CGGUAGCAAUAUUACGCACA | -0.755 ± 0.26 | -0.0778 ± 0.19 |
| CGGUAGCAAUAUUACGCCAG | -0.874 ± 0.092 | -1.03 ± 0.14 |
| CGGUAGCAAUAUUACGCCCC | -1.29 ± 0.24 | -0.667 ± 0.29 |
| CGGUAGCAAUAUUACGCCGG | -1.45 ± 0.078 | -0.573 ± 0.12 |
| CGGUAGCAAUAUUACGCGUC |  | -1.81 ± 0.39 |
| CGGUAGCAAUAUUACGGAAG | -0.936 ± 0.13 | -0.67 ± 0.14 |
| CGGUAGCAAUAUUACGGAUG | -0.393 ± 0.063 | 0.221 ± 0.096 |
| CGGUAGCAAUAUUACGGCUG | -4.13 ± 0.25 | -1.05 ± 0.16 |
| CGGUAGCAAUAUUACGGGGC |  | -2.39 ± 0.34 |
| CGGUAGCAAUAUUACGGUAG | -0.557 ± 0.071 | -0.0774 ± 0.089 |
| CGGUAGCAAUAUUACGUCCU | -0.294 ± 0.063 | 0.121 ± 0.08 |

| Sequence | self-splicing fitness (ln) (30 °C) | self-splicing fitness (ln) (37 °C) |
| --- | --- | --- |
| CGGUAGCAAUAUUACGUUAU | -2.66 ± 0.25 |  |
| CGUAAGCAAUAUUACGAAGG | -1.78 ± 0.12 | -1.16 ± 0.2 |
| CGUAAGCAAUAUUACGACAC | -2.84 ± 0.14 | -2.55 ± 0.16 |
| CGUAAGCAAUAUUACGACUU | -3.09 ± 0.23 | -1.35 ± 0.22 |
| CGUAAGCAAUAUUACGAGAU | -4.04 ± 0.47 | -2.55 ± 0.41 |
| CGUAAGCAAUAUUACGAUAA | -2.66 ± 0.23 | -1.86 ± 0.24 |
| CGUAAGCAAUAUUACGAUGC |  | -2.04 ± 0.26 |
| CGUAAGCAAUAUUACGCAUC |  | -2.03 ± 0.26 |
| CGUAAGCAAUAUUACGCCAC | -2.55 ± 0.42 | -0.936 ± 0.3 |
| CGUAAGCAAUAUUACGCCGG | -1.38 ± 0.11 | -1.04 ± 0.14 |
| CGUAAGCAAUAUUACGCCUU | -2.51 ± 0.23 | -2.05 ± 0.31 |
| CGUAAGCAAUAUUACGCUCU | -0.698 ± 0.17 | -1.35 ± 0.2 |
| CGUAAGCAAUAUUACGCUGA | -3.48 ± 0.42 | -1.42 ± 0.18 |
| CGUAAGCAAUAUUACGGAAG | -2.64 ± 0.19 | -1.41 ± 0.17 |
| CGUAAGCAAUAUUACGGAGC | -4.17 ± 0.39 |  |
| CGUAAGCAAUAUUACGGCAG | -0.537 ± 0.091 | -0.781 ± 0.095 |
| CGUAAGCAAUAUUACGGCGA | -2.31 ± 0.2 | -2.02 ± 0.25 |
| CGUAAGCAAUAUUACGGGGA | -3.42 ± 0.22 | -1.73 ± 0.14 |
| CGUAAGCAAUAUUACGGGGG | -2.61 ± 0.14 | -2.69 ± 0.19 |
| CGUAAGCAAUAUUACGGUAU | -3.71 ± 0.37 | -2.56 ± 0.26 |
| CGUAAGCAAUAUUACGGUUC |  | -2.59 ± 0.26 |

| Sequence | self-splicing fitness (ln) (30 °C) | self-splicing fitness (ln) (37 °C) |
| --- | --- | --- |
| CGUAAGCAAUAUUACGUAAU | -3.23 ± 0.16 | -2.64 ± 0.18 |
| CGUAAGCAAUAUUACGUCAA | -2.62 ± 0.26 | -1.56 ± 0.24 |
| CGUAAGCAAUAUUACGUCAC |  | -2.59 ± 0.44 |
| CGUAAGCAAUAUUACGUUAA | -3.03 ± 0.23 | -2.47 ± 0.29 |
| CGUAAGCAAUAUUACGUUUC | -3.97 ± 0.24 | -1.92 ± 0.2 |
| CGUAAGCAAUAUUACGUUUG | -1.2 ± 0.08 | -0.438 ± 0.1 |
| CGUAAGCAAUAUUACGUUUU | -4.1 ± 0.18 | -3.05 ± 0.19 |
| CGUCAGCAAUAUUACGAAGC |  | -2.3 ± 0.5 |
| CGUCAGCAAUAUUACGACCG | -0.855 ± 0.098 | -0.475 ± 0.12 |
| CGUCAGCAAUAUUACGACCU | -0.193 ± 0.13 | 0.326 ± 0.15 |
| CGUCAGCAAUAUUACGACGC |  | -3.2 ± 0.32 |
| CGUCAGCAAUAUUACGAUCA | -0.722 ± 0.096 | 0.228 ± 0.12 |
| CGUCAGCAAUAUUACGCACU | -0.336 ± 0.071 | 0.339 ± 0.079 |
| CGUCAGCAAUAUUACGCCAU | -3.87 ± 0.29 | -2.81 ± 0.3 |
| CGUCAGCAAUAUUACGCUUU | -3.76 ± 0.27 | -1.66 ± 0.17 |
| CGUCAGCAAUAUUACGGAAU | -4.05 ± 0.37 | -2.83 ± 0.21 |
| CGUCAGCAAUAUUACGGAUG | -3.63 ± 0.2 | -1.74 ± 0.14 |
| CGUCAGCAAUAUUACGGCAU | -0.76 ± 0.074 | -0.608 ± 0.081 |
